Columns and labels:
[1] = biological target: T1, PSMA on LNCaP prostate cancer cells (UniProt Q04609 1-750, limits assumed); assay: cell ELISA on fixed LNCaP (PSMA+) against MKN45 (PSMA-) cells, HRP-anti-M13, OD450
T1 construct: whole, on cells; Cells fixed with 4% paraformaldehyde before the assay; also called 前列腺特异性膜抗原; LNCaP细胞(表达PSMA)

[2] = biological target: T2, PSMA胞外区蛋白 (recombinant extracellular region of prostate specific membrane antigen, expressed in HEK-293) (UniProt Q04609 44-750, limits assumed); assay: indirect phage ELISA, PSMA extracellular region protein coated at 5 μg/mL, HRP-anti-M13 detection
T2 construct: extracellular domain; also called 前列腺特异性膜抗原膜外区; PSMA蛋白
T2 sequence (Q04609 44-750 limits assumed): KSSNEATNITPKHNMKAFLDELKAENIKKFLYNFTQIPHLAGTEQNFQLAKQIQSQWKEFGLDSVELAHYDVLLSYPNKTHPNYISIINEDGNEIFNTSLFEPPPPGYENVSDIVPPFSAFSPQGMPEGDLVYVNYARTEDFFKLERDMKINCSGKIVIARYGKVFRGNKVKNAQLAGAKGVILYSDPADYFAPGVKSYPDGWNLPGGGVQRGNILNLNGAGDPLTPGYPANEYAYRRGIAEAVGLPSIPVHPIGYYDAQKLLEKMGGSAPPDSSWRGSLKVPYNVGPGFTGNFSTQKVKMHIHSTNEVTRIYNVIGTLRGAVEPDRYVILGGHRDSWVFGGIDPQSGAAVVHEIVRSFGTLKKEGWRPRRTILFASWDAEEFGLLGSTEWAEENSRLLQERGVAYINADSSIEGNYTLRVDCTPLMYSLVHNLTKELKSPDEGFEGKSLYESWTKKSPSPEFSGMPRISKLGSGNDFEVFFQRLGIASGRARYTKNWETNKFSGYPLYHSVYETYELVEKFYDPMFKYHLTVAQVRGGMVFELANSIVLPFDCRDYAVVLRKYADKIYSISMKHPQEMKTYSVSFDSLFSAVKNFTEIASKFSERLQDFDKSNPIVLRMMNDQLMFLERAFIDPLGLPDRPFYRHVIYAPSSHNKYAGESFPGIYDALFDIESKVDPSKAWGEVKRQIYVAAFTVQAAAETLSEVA

T1 sequence (Q04609 whole entry): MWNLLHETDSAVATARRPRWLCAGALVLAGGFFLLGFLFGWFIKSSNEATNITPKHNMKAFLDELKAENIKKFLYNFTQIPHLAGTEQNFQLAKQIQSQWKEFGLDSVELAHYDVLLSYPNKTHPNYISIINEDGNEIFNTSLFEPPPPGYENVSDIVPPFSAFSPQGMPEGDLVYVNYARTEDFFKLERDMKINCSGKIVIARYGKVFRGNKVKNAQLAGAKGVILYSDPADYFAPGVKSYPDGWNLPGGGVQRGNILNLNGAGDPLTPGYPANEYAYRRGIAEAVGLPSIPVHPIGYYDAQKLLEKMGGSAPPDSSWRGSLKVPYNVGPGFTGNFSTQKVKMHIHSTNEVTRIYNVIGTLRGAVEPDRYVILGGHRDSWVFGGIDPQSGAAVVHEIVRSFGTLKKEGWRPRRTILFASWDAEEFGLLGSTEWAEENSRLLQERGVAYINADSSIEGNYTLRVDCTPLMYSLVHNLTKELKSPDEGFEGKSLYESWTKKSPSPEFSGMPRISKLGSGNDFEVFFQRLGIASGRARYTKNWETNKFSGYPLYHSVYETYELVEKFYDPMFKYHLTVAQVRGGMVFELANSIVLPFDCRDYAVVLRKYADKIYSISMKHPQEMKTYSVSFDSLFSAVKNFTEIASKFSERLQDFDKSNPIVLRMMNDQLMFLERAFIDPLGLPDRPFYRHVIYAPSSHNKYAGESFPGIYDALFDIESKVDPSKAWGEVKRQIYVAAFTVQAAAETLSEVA

B1: 抗前列腺特异性膜抗原单域重链抗体噬菌体阳性克隆 (phage clone displaying the anti-PSMA single-domain heavy-chain antibody) (VHH)
VHH: QVQLVESGGGLVQAGGSLRLSCAASGRTISRYAVGWFRQAPGKDREFVAGITRSSSLTGYTDSVKGRFTISRDNAENTVYLQMNSLKPEDTAVYYCAGGPGSYKYWGKGTQVTVSS
notes: detected with anti-M13 antibodies; also called 展示本发明所述纳米抗体的噬菌体克隆; not shown: hinge/linker and coat protein fusion are not described
Does B1 bind [1]?
Result: binds

Does B1 bind [2]?
Result: binds
